Results reported in the Human Domainome abundance scans (Beltran et al. 2025).
± gives the uncertainty stated by the source.

B1: Ventral anterior homeobox 1, residues 102 to 157; numbered along this chain, Q5SQQ9 (parent)
chain: RTRTSFTAEQLYRLEMEFQRCQYVVGRERTELARQLNLSETQVKVWFQNRRTKQKK

Variants of: B1
Experiment: abundance fitness (aPCA) (normalised: wild type 0, dead -1); higher = more abundant; growth selection in yeast, the domain comes from the species named
Conditions: Homo sapiens

Variant	abundance fitness
Q42S	-0.364 ± 0.22
Q42G	-0.603 ± 0.13
Q42C	-0.563 ± 0.49
Q42P	-0.824 ± 0.37
Q42L	-0.137 ± 0.15
Q42E	0.183 ± 0.16
Q42R	-0.223 ± 0.11
Q42K	-0.473 ± 0.3
Q42M	-0.252 ± 0.19
Q42A	0.021 ± 0.12
Q42D	0.028 ± 0.33
Q42W	-0.397 ± 0.23
Q42N	-0.257 ± 0.31
Q42I	0.007 ± 0.2
Q42F	-0.266 ± 0.45
Q42Y	0.053 ± 0.5
Q42V	-0.153 ± 0.12
Q42T	0.163 ± 0.19
K44E	0.048 ± 0.15
K44P	-0.94 ± 0.22
K44G	-0.049 ± 0.11
K44S	0.106 ± 0.13
K44A	0.038 ± 0.12
K44W	-0.167 ± 0.12

Variant	abundance fitness
K44F	-0.464 ± 0.31
K44H	-0.26 ± 0.24
K44L	-0.175 ± 0.12
K44M	-0.079 ± 0.14
K44Q	-0.091 ± 0.14
K44Y	-0.271 ± 0.2
K44R	-0.22 ± 0.086
K44V	-0.032 ± 0.11
K44C	-0.069 ± 0.16
K44N	0.002 ± 0.16
K44D	0.129 ± 0.23
T41Y	-0.2 ± 0.19
T41W	-0.12 ± 0.12
T52I	-0.358 ± 0.17
T52A	-0.11 ± 0.12
T52E	0.139 ± 0.16
T52G	0.137 ± 0.09
T52C	-0.165 ± 0.17
T52D	0.154 ± 0.19
T52K	0.091 ± 0.16
T52F	-0.285 ± 0.17
T52H	-0.279 ± 0.23
W46L	-0.717 ± 0.2
W46M	-0.919 ± 0.33

Variant	abundance fitness
W46G	-0.778 ± 0.14
W46C	-0.909 ± 0.32
W46Q	-0.958 ± 0.28
W46F	-0.406 ± 0.37
W46S	-0.627 ± 0.23
W46I	-0.807 ± 0.4
W46R	-0.844 ± 0.14
W46T	-0.922 ± 0.3
W46K	-1.11 ± 0.45
W46V	-0.63 ± 0.19
N49Q	-0.038 ± 0.21
N49P	-0.929 ± 0.31
N49H	-0.358 ± 0.27
N49V	-0.1 ± 0.12
N49C	-0.283 ± 0.25
N49T	0.072 ± 0.18
N49G	-0.047 ± 0.1
N49K	-0.022 ± 0.18
N49D	-0.019 ± 0.32
N49L	-0.046 ± 0.12
N49F	-0.609 ± 0.48
N49I	-0.069 ± 0.27
N49S	-0.277 ± 0.14
N49M	-0.442 ± 0.2

Variant	abundance fitness
N49R	-0.26 ± 0.11
N49E	0.297 ± 0.15
F47E	-1.04 ± 0.3
F47Y	-0.376 ± 0.34
F47D	-0.674 ± 0.23
F47I	-0.663 ± 0.29
F47A	-1.02 ± 0.17
F47M	-0.228 ± 0.17
F47C	-0.743 ± 0.29
F47P	-0.836 ± 0.25
F47Q	-0.767 ± 0.25
F47W	-0.651 ± 0.25
F47H	-0.754 ± 0.35
F47K	-0.885 ± 0.39
F47V	-0.787 ± 0.17
F47R	-0.873 ± 0.18
F47T	-0.792 ± 0.24
F47S	-0.762 ± 0.21
F47G	-0.976 ± 0.14
V45M	-0.148 ± 0.27
V45A	0.02 ± 0.11
V45T	0.126 ± 0.16
V45L	0.083 ± 0.13
V45R	-0.156 ± 0.095

Variant	abundance fitness
V45F	-0.03 ± 0.26
V45Y	-0.046 ± 0.21
V45P	-0.545 ± 0.22
V45W	0.015 ± 0.1
V45S	0.158 ± 0.12
V45D	0.185 ± 0.16
V45I	-0.3 ± 0.22
V45G	-0.159 ± 0.084
V45Q	-0.061 ± 0.18
V45K	-0.258 ± 0.18
V45H	-0.021 ± 0.21
V45N	-0.248 ± 0.27
R50S	-0.451 ± 0.12
R50V	-0.943 ± 0.18
R50W	-0.929 ± 0.2
R50M	-0.034 ± 0.16
R50L	-0.925 ± 0.2
R50P	-1.02 ± 0.29
R50I	-1.09 ± 0.44
R50N	-0.424 ± 0.35
R50G	-0.832 ± 0.13
R50T	-0.392 ± 0.16
R50K	-0.041 ± 0.17
R50E	0.009 ± 0.19

Variant	abundance fitness
R50H	-0.624 ± 0.43
R50A	-0.163 ± 0.13
R50Q	-0.098 ± 0.17
R50Y	-0.285 ± 0.27
Q48G	-0.314 ± 0.15
Q48T	-0.076 ± 0.26
Q48L	-0.051 ± 0.2
Q48M	-0.122 ± 0.3
Q48C	-0.051 ± 0.29
Q48S	-0.111 ± 0.16
Q48Y	-0.298 ± 0.28
Q48H	-0.505 ± 0.39
Q48W	-0.619 ± 0.27
Q48A	-0.167 ± 0.2
Q48R	-0.172 ± 0.15
Q48I	-0.284 ± 0.46
Q48V	-0.115 ± 0.18
Q48K	0.142 ± 0.45
Q48D	-0.11 ± 0.44
Q48E	-0.193 ± 0.31
V43F	-0.765 ± 0.32
V43W	-0.871 ± 0.23
V43C	-0.508 ± 0.23
V43P	-0.723 ± 0.33

Variant	abundance fitness
V43M	-0.838 ± 0.4
V43D	-0.691 ± 0.37
V43S	-0.561 ± 0.22
V43Q	-0.817 ± 0.43
V43A	-0.679 ± 0.28
V43R	-0.793 ± 0.18
V43L	-0.166 ± 0.14
R51V	-0.319 ± 0.12
R51A	-0.325 ± 0.12
R51K	-0.365 ± 0.32
R51Q	0.049 ± 0.24
R51Y	-0.091 ± 0.21
R51M	-0.333 ± 0.25
R51W	-0.243 ± 0.14
R51N	-0.117 ± 0.35
R51G	-0.16 ± 0.1
R51H	-0.038 ± 0.18
R51E	-0.309 ± 0.19
R51I	0.068 ± 0.26
R51S	-0.201 ± 0.13
R51D	-0.14 ± 0.22
R51F	-0.2 ± 0.25
R51C	-0.08 ± 0.17
